± gives the uncertainty stated by the source.
Assay: self-splicing fitness, log relative to wild type (ln ratio); higher = more splicing; Tetrahymena group I intron in knt gene, E. coli kanamycin selection, DiMSum; sequences stand for … in CUCUCU…GGAGGGAAAAGUUAUCAGGCAUGCACCUGGUAGCUAGUCUUUAAACCAAUAGAUUGCAUCGGUUUAAAAGGCAAGACCGUCAAAUUGCGGGAAAGGGGUCAACAGCCGUUCAGUACCAAGUCUCAGGGGAAACUUUGAGAUGGCCUUGCAAAGGGUAUGGUAAUAAGCUGACGGACAUGGUCCUAACCACGCAGCCAAGUCCUAAGUCAACAGAUCUUCUGUUGAUAUGGAUGCAGUUCACAGACUAAAUGUCGGUCGGGGAAGAUGUAUUCUUCUCAUAAGAUAUAGUCGGACCUCUCCUUAAUGGGAGCUAGCGGAUGAAGUGAUGCAACACUGGAGCCGCUGGGAACUAAUUUGUAUGCGAAAGUAUAUUGAUUAGUUUUGGAGUACUCGUGGUCG
In short: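 Library with all eight P1ex-region intron nucleotides randomised, intron inside the knt kanamycin-resistance gene on pET-22b(+), in E. coli BL21(DE3). Cells grew overnight at 37°C or 30°C on LB agar with or without 25 μg/mL kanamycin (plus 100 μg/mL carbenicillin, 50 μM IPTG, 0.2% rhamnose), in six replicate transformations. Pooled colonies were amplicon-sequenced on Illumina HiSeq 2500. DiMSum fitness is the error-weighted combination of wild-type-normalised replicate fold changes, kanamycin versus none.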

| Sequence | self-splicing fitness (ln) (30 °C) | self-splicing fitness (ln) (37 °C) |
| --- | --- | --- |
| UAUCAGCAAUAUUACGUUCG | -0.844 ± 0.085 | 0.113 ± 0.11 |
| AGUAAGCAAUAUUACGGCUA | 0.0253 ± 0.081 | 0.0684 ± 0.094 |
| GUUAAGCAAUAUUACGAUCG | -2.08 ± 0.25 | -1.18 ± 0.22 |
| CUCUAGCAAUAUUACGCGCG | -3.15 ± 0.27 | -2.86 ± 0.28 |
| UUUGAGCAAUAUUACGACGA | -0.573 ± 0.15 | 0.211 ± 0.18 |
| CAUUAGCAAUAUUACGGGCU | -1.68 ± 0.2 | -2.7 ± 0.3 |
| CGUAAGCAAUAUUACGCGUU | -3.69 ± 0.36 | -2.31 ± 0.32 |
| CGAUAGCAAUAUUACGCUAC | -2.95 ± 0.29 |  |
| UCCCAGCAAUAUUACGGGGC | -2.72 ± 0.17 | -2.84 ± 0.22 |
| CGAAAGCAAUAUUACGAGUG | -0.203 ± 0.049 | 0.0139 ± 0.065 |
| CCUAAGCAAUAUUACGCACA | -4.21 ± 0.46 | -1.2 ± 0.35 |
| UAGCAGCAAUAUUACGUCAU | -3.68 ± 0.17 | -1.52 ± 0.13 |
| CAGCAGCAAUAUUACGUCAG | -0.347 ± 0.05 | -0.265 ± 0.06 |
| CAAAAGCAAUAUUACGGGAG | -2.05 ± 0.074 | -0.972 ± 0.079 |
| UGAUAGCAAUAUUACGUUGG | -2.45 ± 0.12 | -1.63 ± 0.16 |
| GACGAGCAAUAUUACGAUCU | -2.04 ± 0.15 | -1.13 ± 0.15 |
| GAAGAGCAAUAUUACGCUCA |  | -1.33 ± 0.48 |
| ACGCAGCAAUAUUACGGCGC | -3.39 ± 0.14 | -1.63 ± 0.11 |
| UGGCAGCAAUAUUACGCAUA | -0.869 ± 0.096 | -0.265 ± 0.1 |
| AGAGAGCAAUAUUACGUCUU | -2.88 ± 0.19 | -2 ± 0.18 |
| GAGGAGCAAUAUUACGUGAU |  | -2.02 ± 0.27 |
| CUACAGCAAUAUUACGGGUU | -3.18 ± 0.11 | -2.94 ± 0.12 |
| ACUAAGCAAUAUUACGGCUG | -0.108 ± 0.076 | 0.16 ± 0.097 |
| AAACAGCAAUAUUACGACAU | -0.514 ± 0.011 | -0.112 ± 0.032 |
| UGGGAGCAAUAUUACGGGAU | -3.11 ± 0.37 | -2.17 ± 0.29 |
| CUGGAGCAAUAUUACGUAAC | -3.25 ± 0.32 | -1.86 ± 0.3 |
| GACAAGCAAUAUUACGCCAG | -3.1 ± 0.3 |  |

| Sequence | self-splicing fitness (ln) (30 °C) | self-splicing fitness (ln) (37 °C) |
| --- | --- | --- |
| GUAUAGCAAUAUUACGGUGC | -2.45 ± 0.23 | -1.76 ± 0.36 |
| CUACAGCAAUAUUACGGUGG | -4.48 ± 0.21 | -2.71 ± 0.15 |
| AGCCAGCAAUAUUACGCAGC |  | -1.21 ± 0.28 |
| UGACAGCAAUAUUACGCCGU | -2.54 ± 0.14 | -1.85 ± 0.15 |
| UUGGAGCAAUAUUACGAUAU |  | -2.49 ± 0.32 |
| AGCCAGCAAUAUUACGCCAC |  | -3.04 ± 0.43 |
| CGGCAGCAAUAUUACGAGCG | -0.946 ± 0.09 | -0.441 ± 0.11 |
| CUUGAGCAAUAUUACGGGUG | -1.24 ± 0.072 | -0.485 ± 0.078 |
| CCCGAGCAAUAUUACGAUAA | -1.81 ± 0.23 | -2.73 ± 0.25 |
| GACGAGCAAUAUUACGUGUU | -3.18 ± 0.16 | -3.09 ± 0.19 |
| CUGCAGCAAUAUUACGCAUC |  | -2.46 ± 0.3 |
| GUAUAGCAAUAUUACGAACA | -2.44 ± 0.27 | -1.21 ± 0.27 |
| UAAAAGCAAUAUUACGGGUU | -3.85 ± 0.28 | -1.48 ± 0.12 |
| UUAUAGCAAUAUUACGUACC | -3.97 ± 0.31 | -3.01 ± 0.3 |
| UAAAAGCAAUAUUACGGAAG | -2.03 ± 0.15 | -0.624 ± 0.15 |
| UAAAAGCAAUAUUACGUUAG | -1.37 ± 0.069 | -1.33 ± 0.088 |
| UUACAGCAAUAUUACGACGC | 0.421 ± 0.26 | -1.47 ± 0.36 |
| GACCAGCAAUAUUACGGUGG | -2.38 ± 0.077 | -0.875 ± 0.087 |
| CACGAGCAAUAUUACGAGUA | -2.53 ± 0.16 | -2.11 ± 0.22 |
| ACGCAGCAAUAUUACGUAAC | -3.99 ± 0.22 | -2.37 ± 0.23 |
| CGUUAGCAAUAUUACGGUUA | -1.55 ± 0.21 | -1.66 ± 0.17 |
| AUCUAGCAAUAUUACGGCCG | -1.43 ± 0.23 | -0.562 ± 0.38 |
| UGACAGCAAUAUUACGGCCC | -0.701 ± 0.12 | -0.967 ± 0.18 |
| CCUUAGCAAUAUUACGGCAG | -1.83 ± 0.12 | -2.73 ± 0.2 |
| ACAGAGCAAUAUUACGUACU | -2.96 ± 0.27 | -2.14 ± 0.21 |
| CUACAGCAAUAUUACGCGUU | -4.43 ± 0.23 | -2.37 ± 0.21 |
| UACUAGCAAUAUUACGGGUG | -0.974 ± 0.077 | -0.232 ± 0.075 |

| Sequence | self-splicing fitness (ln) (30 °C) | self-splicing fitness (ln) (37 °C) |
| --- | --- | --- |
| UAAGAGCAAUAUUACGACGC | -2.96 ± 0.32 | -2.07 ± 0.43 |
| UAAAAGCAAUAUUACGUGGU | -3.53 ± 0.13 | -2.28 ± 0.14 |
| UACAAGCAAUAUUACGCACG | -1.29 ± 0.094 | 0.0257 ± 0.1 |
| AGGAAGCAAUAUUACGUAAU | -0.858 ± 0.14 | -1.42 ± 0.18 |
| CCAAAGCAAUAUUACGUUUG | -2.93 ± 0.089 | -1.43 ± 0.086 |
| CUUUAGCAAUAUUACGCAGG | -2.83 ± 0.39 |  |
| AAACAGCAAUAUUACGCUCU | -0.653 ± 0.085 | 0.413 ± 0.086 |
| UCAGAGCAAUAUUACGCUAU | -3.45 ± 0.48 | -2.08 ± 0.41 |
| GGGGAGCAAUAUUACGAAAC | -3.15 ± 0.42 | -0.654 ± 0.3 |
| ACGCAGCAAUAUUACGGGUA | -2.46 ± 0.11 | -1.37 ± 0.087 |
| CCUAAGCAAUAUUACGAAGA | -1.82 ± 0.22 | -1.82 ± 0.22 |
| AAAAAGCAAUAUUACGCAGG | -2.42 ± 0.15 | -1.03 ± 0.14 |
| AUGGAGCAAUAUUACGGGAG | -2.75 ± 0.18 | -2.82 ± 0.31 |
| GAUGAGCAAUAUUACGGUAA | -2.21 ± 0.29 | -2.95 ± 0.38 |
| AUCCAGCAAUAUUACGACCG | -1.43 ± 0.084 | -0.707 ± 0.12 |
| UACAAGCAAUAUUACGCUGC | -2.03 ± 0.19 | -0.919 ± 0.32 |
| CCAAAGCAAUAUUACGUUAG | -1.89 ± 0.071 | -0.652 ± 0.073 |
| UCACAGCAAUAUUACGCUAC | -3.12 ± 0.19 | -2.77 ± 0.21 |
| CACAAGCAAUAUUACGACUA | -1.02 ± 0.089 | -1.21 ± 0.074 |
| AAGUAGCAAUAUUACGCCCU | -0.145 ± 0.17 | -0.639 ± 0.19 |
| UGGGAGCAAUAUUACGCUAU | -1.67 ± 0.29 | -2.62 ± 0.38 |
| GCGUAGCAAUAUUACGCGGG | -3.78 ± 0.24 | -2.75 ± 0.3 |
| AUCCAGCAAUAUUACGGAAU | -2.94 ± 0.13 | -1.91 ± 0.17 |
| AACCAGCAAUAUUACGCAUA | -0.88 ± 0.078 | 0.309 ± 0.089 |
| UCACAGCAAUAUUACGACUU | -3.28 ± 0.2 | -1.65 ± 0.12 |

From the supplement of paper PMC7877785
